{
  "source": "patent US20050059058A1",
  "about": "(CASE WESTERN RESERVE UNIVERSITY, published 2005)",
  "binders": {"B1": {"name": "soluble fragment of ZipA (the 39-328 peptide) (other)", "chain": "not shown", "notes": "also called portion or fragment of the ZipA protein"}, "B2": {"name": "HFKT-MinE fusion protein (15.9 kD, encoded by pDB311), 32P-labelled (other, Escherichia coli)", "chain": "MGHHHHHHHHHHSSGHIEGRHMDYKDDDDKARRASVEFHMASMTGGQQMGRGSDFFLSRKKNTANIAKERLQIIVAERRRSDAEPHYLPQLRKDILEVICKYVQIDPEMVTVQLEQKDGDISILELNVTLPEAEELK", "modifications": "32P-phosphorylated in vitro by bovine heart muscle kinase at the kinase substrate site of the HFKT tag", "notes": "range 5-88; Negative control probe; also called HKFT-MinE; radiolabelled HKFT-MinE"}},
  "key": {"[1]": {"target": "T1, FtsZ protein (native, unlabelled) (Escherichia coli, UniProt P0A9A6 1-383)", "T1 construct": "also called native FtsZ; immobilized FtsZ", "T1 sequence (looked up)": "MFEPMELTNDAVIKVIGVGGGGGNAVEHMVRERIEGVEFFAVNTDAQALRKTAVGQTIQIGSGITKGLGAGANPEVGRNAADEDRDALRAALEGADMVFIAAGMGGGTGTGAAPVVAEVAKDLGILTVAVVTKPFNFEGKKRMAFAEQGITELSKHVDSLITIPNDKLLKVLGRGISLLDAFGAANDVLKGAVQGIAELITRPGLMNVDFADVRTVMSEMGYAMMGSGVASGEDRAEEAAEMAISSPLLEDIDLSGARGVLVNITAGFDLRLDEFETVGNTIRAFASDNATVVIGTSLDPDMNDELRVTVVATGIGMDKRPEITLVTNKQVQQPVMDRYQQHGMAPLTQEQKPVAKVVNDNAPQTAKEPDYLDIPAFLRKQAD", "experiment": "assay not described"}, "ZipA protein of E. coli": {"target": "T2, ZipA protein of E. coli (Escherichia coli, UniProt B1IX59 1-328)", "T2 construct": "Complete ZipA as present in the insoluble (P200) fraction of E. coli, or overproduced from the zipA ORF in a T7 system; on blots after boiling in SDS; also called 50 Kd band", "experiment": "affinity blotting (far Western) with 32P-labelled probe", "from_the_text": "To address the possibility that other proteins interact with FtsZ, the present inventors searched for proteins with affinity to FtsZ. In one approach, a FtsZ derivative (HFKT-FtsZ) was made which carries at the N-terminus a histidine-tag (the his-tag is useful for purification by metal chelate affinity chromatography such as that described in U.S. Pat. No. 5,310,663, hereby incorporated by reference) as well s a substrate site for heart muscle kinase. The purified protein was radiolabeled in vitro by incubation with kinase and [γ³²P]ATP and used as a probe on Western blots.\nAfter the addition of one volume of electrophoresis sample buffer (125 mM Tris.Cl, 4% SDS, 20% glycerol, 1.4 M (β-mercaptoethanol, pH=6.6), samples (e.g., whole cells boiled in sample buffer, or fractionated cells) were held in a boiling water bath for 5 min., and subjected to conventional SDS-PAGE on 0.75 mm thick 10% T/2.7% C gels. Electrophoretic transfer to nitrocellulose filter (0.2μ) was performed in a Genie blotter (Idea Scientific Co.) with regular Towbin buffer (25 mM Tris.Cl, 192 mM glycine, 20% methanol, pH 8.3) at 12 V for 30 min. To monitor the transfer and to visualize the molecular weight standards, filters were treated with the reversible stain Ponceau S (0.1% in 5% acetic acid) for 1 min. Filters were next destained in 10 mM Tris-Cl, rinsed in water, and allowed to dry for 15 min in air."}},
  "data": [
    {"binder": "B1", "values": [
      {"measurement": "binding result", "setting": "[1]", "value": "binds"}
    ]},
    {"binder": "B2", "values": [
      {"measurement": "binding result", "setting": "ZipA protein of E. coli", "value": "no binding"}
    ]}
  ]
}
